We go through one molecule from publication doi:10.1101/2021.12.15.472864 (bioRxiv, 2021).

In the test the target is SARS-CoV-2 spike receptor-binding domain (RBD), residues 333-529 (SARS-CoV-2, UniProt P0DTC2). The experiment in a line: crystal structure.

B1: ADI-62113 Fab (Fab, V domains shown)
VH: QVQLQQSGAEVKKPGASVKLSCKASGYTFSVFPIHWVRQAPGQRLEWMGWHNAGDGDTKYSQKFQGRVTIISDTSASTAYMELSSLKSEDTAVYYCARAARPYYDRRGYFFRADYFQHWGQGTLVTVSS
VL: DIQVTQSPSSLSASVGDRVTITCQASQDIKNSLNWYQQKPGKAPKLLISDASNLETGVPSRFSGNGSGTDFTFTISSLQPEDIATYYCQQYDNLITFGPGTKVEIK
Take B1: the binding result is “binds”.
